The values below come from patent publication US20220064329A1 (Novo Nordisk, published 2022).

In general, Kd refers to a measure of binding affinity in units of concentration.

Assay [1] deals with T1, recombinant human activated Factor VII (FVIIa) (human, UniProt P08709 61-212; P08709 213-466, Gla domain: ten glutamate residues may be gamma-carboxylated).
T1 construct: two-chain form after cleavage between Arg152 and Ile153; light chain (Gla, EGF domains) and heavy chain (protease domain) tethered by a disulfide bond; also called rFVIIa; human FVIIa
T1 sequence 1: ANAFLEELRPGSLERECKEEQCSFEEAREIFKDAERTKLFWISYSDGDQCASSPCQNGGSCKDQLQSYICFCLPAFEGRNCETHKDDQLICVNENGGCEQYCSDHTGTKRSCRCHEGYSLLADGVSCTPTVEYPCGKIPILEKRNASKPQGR
T1 sequence 2: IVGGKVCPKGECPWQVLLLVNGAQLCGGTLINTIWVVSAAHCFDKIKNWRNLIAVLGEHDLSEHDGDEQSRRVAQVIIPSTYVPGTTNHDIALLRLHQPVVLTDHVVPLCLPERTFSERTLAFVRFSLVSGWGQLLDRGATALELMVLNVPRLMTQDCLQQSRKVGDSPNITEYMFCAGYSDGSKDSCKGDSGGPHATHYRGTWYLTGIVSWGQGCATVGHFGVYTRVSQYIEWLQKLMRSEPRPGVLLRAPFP
The experiment in a line: SPR (Biacore T200), captured antibody, FVIIa injected at 5-135 nM, 1:1 model. The procedure:
Anti-murine IgG (by GE Healthcare) was immobilised on a CM4 sensor chip using standard amine coupling chemistry kit (both supplied by GE Healthcare). […] The running buffer was prepared by diluting 10-fold the 10×HBS-P buffer (supplied by GE Healthcare) and supplemented with 1 mg/ml BSA and 5 mM CaCl₂) to give 10 mM HEPES, 150 mM NaCl, 0.05% v/v Polysorbate 20(P20), pH 7.4, 5 mM CaCl₂), 1 mg/ml bovine serum albumin (BSA). […] Regeneration of the chip was achieved using regeneration buffer consisting of 10 mM Gly-HCl pH 1.7 (supplied by GE Healthcare). Binding data were analysed according to a 1:1 model using BiaEvaluation 4.1 supplied by the manufacturer (Biacore AB, Uppsala, Sweden).
(In general: In SPR one partner is held on a chip, and binding of the other changes the refractive index at the surface.)

Assay [2] concerns the target T1, recombinant human activated Factor VII …. The experiment in a line: cell-based or functional assay.
Assay [3] concerns the target T2, murine FVII(a) (mouse, UniProt P70375 42-446).
T2 sequence (looked up): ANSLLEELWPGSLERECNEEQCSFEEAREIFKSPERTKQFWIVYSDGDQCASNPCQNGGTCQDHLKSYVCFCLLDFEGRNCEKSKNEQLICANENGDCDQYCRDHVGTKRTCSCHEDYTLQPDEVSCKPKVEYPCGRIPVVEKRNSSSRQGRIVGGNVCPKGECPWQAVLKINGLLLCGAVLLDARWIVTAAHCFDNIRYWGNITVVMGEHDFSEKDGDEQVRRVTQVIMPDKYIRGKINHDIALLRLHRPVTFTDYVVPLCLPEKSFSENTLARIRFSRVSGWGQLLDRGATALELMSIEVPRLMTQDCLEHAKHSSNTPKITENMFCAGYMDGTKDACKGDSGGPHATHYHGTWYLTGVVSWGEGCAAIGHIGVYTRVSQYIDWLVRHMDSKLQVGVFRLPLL
The experiment in a line: not told; stated as the reason for co-administering human FVII(a) in the mouse model.

B1: mAb0048 (antibody, human IgG4 S228P, kappa, V domains shown)
VH: DVQLQESGPGLVEPSQSLSLTCTVTGYSITSDCAWSWIRQFPGNKLEWMGYINYSGSTNYNPSLKSRISVTRDTSKNQFFLRLSSVTAEDTATYYCTRSVNYYGNSFAVGYWGQGTSVTVSS
VL: DIVMTQSPATLSVTAGDRVSLSCRASQGISDYLHWYQQKSHESPRLLIKYTSQPVSGIPSRFSGSGSGSEFTLSINSVEPEDVGVYYCQNGHSFPLTFGAGTKLELKR
notes: murine variable domains, human IgG4 S228P constant domain (type A), human kappa; also called 11F2 murine/human chimera
Consider B1, for which, in assay [1], the Kd was determined as 0.029 nM. The “AT inhibition (kinh %)” value in assay [2] came to 109%.

B2: biAb0001 (bispecific antibody, human IgG4 S228P, kappa)
heavy 1: QVQLQESGPGLVKPSQTLSLTCTVSGYSISSDSAWSWIRQPPGKGLEWIGYIQYSGSTNYNPSLKSRVTISRDTSKNQFSLKLSSVTAADTAVYYCARSVNYYGNSFAVGYWGQGTLVTVSSASTKGPSVFPLAPCSRSTSESTAALGCLVKDYFPEPVTVSWNSGALTSGVHTFPAVLQSSGLYSLSSVVTVPSSSLGTKTYTCNVDHKPSNTKVDKRVESKYGPPCPPCPAPEFLGGPSVFLFPPKPKDTLMISRTPEVTCVVVDVSQEDPEVQFNWYVDGVEVHNAKTKPREEQFNSTYRVVSVLTVLHQDWLNGKEYKCKVSNKGLPSSIEKTISKAKGQPREPQVYTLPPSQEEMTKNQVSLTCLVKGFYPSDIAVEWESNGQPENNYKTTPPVLDSDGSFLLYSKLTVDKSRWQEGNVFSCSVMHEALHNHYTQKSLSLSLGK
light 1: EIVLTQSPATLSLSPGERATLSCRASQGISDYLHWYQQKPGEAPRLLIKYTSQPATGIPARFSGSGSGTDFTLTISSLEPEDFAVYYCQNGHSFPLTFGQGTKLEIKRTVAAPSVFIFPPSDEQLKSGTASVVCLLNNFYPREAKVQWKVDNALQSGNSQESVTEQDSKDSTYSLSSTLTLSKADYEKHKVYACEVTHQGLSSPVTKSFNRGEC
heavy 2: not shown
light 2: DIVMTQTPLSSPVTLGQPASISCRSSQSLVHRQGNTYFHWLQQRPGQPPRLLIYKVSNRFSGVPDRFSGSGAGTDFTLKISRVEAEDVGVYYCSQSTHVPYTFGQGTKLEIKRTVAAPSVFIFPPSDEQLKSGTASVVCLLNNFYPREAKVQWKVDNALQSGNSQESVTEQDSKDSTYSLSSTLTLSKADYEKHKVYACEVTHQGLSSPVTKSFNRGEC
notes: also called anti-FVII(a)/anti-TLT-1 bispecific antibody; mAb0865 x mAb1076
With B2, the binding result in assay [3] is listed as “no binding”.
